Results on 1 molecule are retold here after patent US20240002499A1, “ANTI-CLIC1 PROTEIN ANTIBODIES AND THE DIAGNOSTIC AND THERAPEUTIC USES THEREOF” (Universita' Degli Studi di Milano, priority 2020, published 2024).

“Also recorded” adds a separate entry of the source.

What all share (assay type): cell-based
One assay has as its target T1, tmCLIC1 ion channel (Homo sapiens, UniProt O00299).
T1 construct: endogenous in cells; host or cells: primary human glioblastoma, colorectal cancer and prostate cancer cells
Description: Patch clamp of CLIC1-mediated chloride current in primary human tumour cultures. Conditions: perforated patch clamp; glioblastoma, colorectal and prostate primary human tumour cultures; perfusion of antibody. The protocol: The microelectrodes were obtained from borosilicate capillaries with a diameter of 1.5 mm. Micropipettes were produced with a P-97 Brown-Flaming puller (Sutter Instruments, Novato, CA), with which the capillaries were forged to a tip diameter of 1-1.5 μm and electrical resistance of 5-8 MΩ.
The perforated patch clamp configuration was used for the whole-cell experiments, employing the antibiotic gramicidin (final concentration in pipette 5 μg/ml) which forms pores in the membrane that are only permeable to monovalent cations; in this way, the cytoplasmic concentration of the chloride ion remains unchanged throughout the experiment. The ion currents were digitised at 5 kHz and filtered at 1 kHz. Clampex 9.2 was used as the data acquisition and analysis programme.
In the time-course experiments, the potential was set on the basis of the resting potential of each cell, and a voltage step of +60 mV was applied every 5 seconds. The current measured is that observed at the end of the voltage step lasting 800 ms. When the amplitude of the current reaches a constant value, the antibody and IAA94 are added in sequence.
For the current-voltage graph, the voltage step protocol used to isolate the currents consisted of voltage variations ranging from −60 mV to +60 mV, with progressive increments of 20 mV lasting 800 ms. […]

For assay [1], the system named is COLO201. As to the kind of experiment: COLO201 spheroids, 3D culture. The conditions noted are these: treated 24 to 96 hours, area normalized on initial area. The procedure: To evaluate whether tmCLIC1omab is able to penetrate across tumor spheroids, a 3D culture was performed. After the complete formation of spheroids, treatments were added and the area was measured every 24 hours up to 96 hours. The area at each time point was then normalized on the initial spheroids' area.
Spheroids were formed with hanging-drop method and then plated in rounded 96 plates coated with 5% of agar. After the complete formation of spheroids, treatments were added and the area was measured every 24 hours up to 96 hours. The area at each time point was then normalized on the initial spheroids' area.

Assay [2] has as its system COLO201. Description: Trans well migration and invasion assay. The conditions noted are these: COLO201 WT, 72 h. The procedure:
The overexpression of tmCLIC1 in the most aggressive cell lines of colorectal cancer and its pivotal role in regulation of cell cycle progression and proliferation, opens a question on the function of tmCLIC1 activity on migration and invasion potential of CRCs, that makes colorectal cancer still uncurable. We performed a Trans well assay to understand whether CLIC1 impairment could affect the migration and invasion potential of COLO201. Cells were plated after 60 hours of serum deprivation on a porous membrane, permeable only to growth factor, in contact to complete medium. The resulting chemo-attractant gradient leads the migrative cells to cross the membranes that are then stained with DAPI to visualize the nuclei. […] For invasion assays, we coated with Matrigel the porous membrane to mimic the extracellular matrix that cells must disrupt to invade tissues and mucosa.
Cells were plated after 60 hours of serum deprivation on a […] porous membrane, permeable only to growth factor, in contact to complete medium. Membranes were cut, stained with DAPI dye, and included with mowiol. Cover glasses were examined under Zeiss Examiner A1 fluorescence microscope with a Zeiss 40×/0.75 NA water immersion lens.

A further assay concerns pMAP38. As to the kind of experiment: Western blot of phosphorylated MAP38 in COLO201. Conditions: COLO201, 72 h of treatment. A general note: A western blot detects proteins with antibodies after separation by electrophoresis.

B1: tmCLIC1omab: IgG1 class antibody containing the heavy chain variable region SEQ ID NO:13 and the light chain variable region SEQ ID NO:14 (antibody, listed as Mus musculus, V domains shown)
VH: EVMLVESGGGLVKPGGSLKLSCAASGFAFSNYAMSWIRQIPEKRLEWVATISTGGSSTFYPDSVKGRFTISRDNAKNTLYLQMSSLRSEDTAMYYCTRHAYEAWFAYWGQGTLVTVSA
VL: QIVLTQSPALMSASPGEKVTMTCSASSSVSYMYWYQQRPRSSPKPWIYLTSTLASGVPTRFSGSGSGTSYSLTISSMEAEDAATYYCQQWNSHPLTFGSGTKLEIK
B1: the “CLIC1-mediated chloride current (current density/voltage)” value with tmCLIC1 ion channel is “almost totally eliminated; also recorded: depressed and almost eliminated the membrane current”. For the same molecule, in the assay with COLO201 [1], the “spheroids' area / proliferation of spheroids versus control” value is listed as “significantly smaller compared to the control from 48 h; also recorded: impair proliferation of spheroids significantly after 48 hours”. In the assay with COLO201 [2], the “migration (number of migrative nuclei) versus control” value is “significant lower number of migrative nuclei”. Moreover, the “invasion (number of invasive nuclei) versus control” value in the assay on COLO201 [2] (Matrigel-coated membrane) was “the same behavior seen for migration assay”. The “expression of pMAP38” value in the assay with pMAP38 is reported as “downregulated”.
